{"source": "patent US8916159B2", "about": "“Selenocysteine mediated hybrid antibody molecules” (The United States of America, as represented by the …, priority 2007, dated 2014)", "key": {"[1]": {"target": "T1, folate receptor (Homo sapiens, UniProt P15328)", "T1 construct": "endogenous in cells; host or cells: SKOV-3", "T1 sequence (P15328 25-234)": "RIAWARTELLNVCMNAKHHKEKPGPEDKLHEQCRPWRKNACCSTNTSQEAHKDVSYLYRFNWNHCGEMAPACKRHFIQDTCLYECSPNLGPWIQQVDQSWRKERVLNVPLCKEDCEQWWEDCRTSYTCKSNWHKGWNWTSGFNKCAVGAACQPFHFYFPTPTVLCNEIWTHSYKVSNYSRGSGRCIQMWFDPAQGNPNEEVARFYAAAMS", "assay": "Flow cytometry binding to SKOV-3 cells expressing folate receptor", "conditions": "SKOV-3, three click reaction conditions, FIG. 17", "method": "The results are depicted in the flow cytometry plot of FIG. 17.\nThe folate was further equipped with an alkyne group using methods described in Thomas et al., Poster MEDI-409, 238th ACS National Meeting, Washington, D.C. (Aug. 16-20, 2009). Using azide-alkyne Huisgen cycloaddition (“click chemistry”) under various reaction conditions, biotin-azide was added to the resulting Fc-Sec-His/folate-alkyne. The results of three reaction conditions are also depicted in the flow cytometry plot of FIG. 17."}, "[2]": {"target": "T2, integrin α4 (Homo sapiens, UniProt P05556+P13612)", "T2 construct": "endogenous in cells", "assay": "Competition with anti-integrin α4 mAb for binding to integrin α4β1-expressing lymphoma cells", "conditions": "PEG-SU-Lys-Lys-mal linker conjugate, FIG. 14", "source_text": "Using solid-phase synthesis techniques as described in Thomas et al., Bioorg. Medicinal Chem. Letters, 18: 5785-88 (2008), the PEG-SU-Lys-Lys-mal linker was used to couple LLP2A to Fc-Sec. A biotin reporter molecule was employed as described in Example 2 to allow detection of Fc covalent adducts by avidin pull-down experiments followed by ELISA visualization. The Fc-Sec-LLP2A conjugate was then incupated with integrin α4β1-expressing cells. The cells were washed and then treated with Cy5-labeled rabbit anti-human IgG. Under these conditions, cells only fluoresced if both the Fc and LLP2A components of the hybrid construct were present."}, "[3]": {"tested_on": "Raji cells", "assay": "Flow cytometry binding to Raji cells", "set-up": "species or system Human", "conditions": "for fluorescence signal on Raji cells after exposure of protein to FITC maleimide derivative: FIG. 11C", "method": "Flow cytometry assays were conducted on the resulting conjugates. Human Burkitt's lymphoma cell line Raji was purchased from ATCC. All incubations were for 1 hour on ice. […] After washing twice with 1% (v/v) FCS/PBS, the cells were incubated with a 1:25 dilution of PE-coupled streptavidin (BD Biosciences) or with FITC-coupled goat anti-human Fab polyclonal (Fab′)2 fragments (Jackson ImmunoResearch Laboratories). […] After washing twice as before, the cells were resuspended in 400 μL 1% (v/v) FCS/PBS and analyzed using a FACScan instrument (Becton-Dickinson). For the competition experiment, the cells were first incubated with the anti-CD52 monoclonal antibody CAMPATH® or Rituximab (all 0.6 μM). For detection, a 1:25 dilution of PE-coupled streptavidin (BD Biosciences) was used."}, "[4]": {"tested_on": "Raji cells", "conditions": "0.6 μM; for complement-dependent cytotoxicity with rabbit complement: 10% rabbit complement 2 hours 37° C.", "method": "To determine whether Sec-conjugation had any effect on the cytotoxic effects of Rituximab, Raji cells were centrifuged and resuspended in 1% (v/v) FCS/PBS, and aliquots of 50 μL containing 5×10^5 cells were distributed into a V-bottom 96-well plate (Corning). After incubation with Rituximab, Rituxi-Sec-His/fluorescein, or Rituxi-Fab-Sec-His/biotin (0.6 μM) for 1 hour on ice, cells were washed twice and incubated with 10% rabbit complement of 3-4 weeks old rabbits (Pel-Freez) for 2 hours at 37° C. After the addition of 100 μg/ml propidium iodide (PI), dead cells were detected by PI accumulation using a FACScan instrument (Becton-Dickinson)."}, "[5]": {"assay": "Serum levels in mice after i.v. injection, flow cytometry using Raji cells", "type": "in vivo, C57BL/6 mice", "conditions": "i.v. 100 μL of 3 mg/mL, bleeds 30 min to 96 h", "method": "The mouse study was carried out by Biocon, Inc. (Rockville, Md.) in accordance with the Guide for the Care and Use of Laboratory Animals published by the National Institutes of Health. […] Sera from retro-orbital bleeds were prepared 30 min, 24 h, 48 h, 72 h, and 96 h after injection. Sera were diluted ten-fold in 1% (v/v) FCS/PBS and analyzed by flow cytometry using Raji cells and Cy5-coupled goat anti-human F(ab′)2 polyclonal antibodies (Jackson ImmunoResearch) or PE-coupled streptavidin as described in Example 10 (FIG. 16C)."}}, "note": "Read-outs that look alike come from different tables or passages of the source. Non-standard residues stand in square brackets, D forms with d. Groups on a side chain read outwards from the residue. No end group written: not given here. folate‑alkyne = folate derivative bearing an alkyne group; Sec = N[C@@H](C[SeH])C(=O)O; biotin‑azide = biotin-azide", "data": [{"substance": "Fc-Sec-His/folate-alkyne: Fc-Sec-His folate conjugate equipped with an alkyne group; biotin-azide clicked on (chain (part 1 of 2) EPKSSDKTHTCPPCP; chain (part 2 of 2) A[Sec]([folate‑alkyne-biotin‑azide])HHHHHH; not fully specified; cysteine pairing not given here; also: biotin-azide clicked on)", "values": [{"measurement": "folate binding after biotin-azide click onto alkyne conjugate", "setting": "[1]", "result": "retained its folate binding properties"}]}, {"substance": "Fc-Sec-LLP2A: LLP2A coupled to Fc-Sec using the PEG-SU-Lys-Lys-mal trifunctional linker with biotin reporter (chain (part 1 of 2) EPKSSDKTHTCPPCP; chain (part 2 of 2) Ala-X; not fully specified (some residues); cysteine pairing not given here; also: LLP2A coupled via PEG-SU-Lys-Lys-mal trifunctional linker with biotin reporter, site not given here)", "values": [{"measurement": "binding to lymphoma cells in the presence of anti-integrin α4 mAb", "setting": "[2]", "result": "diminished binding"}]}, {"substance": "Rituximab-stop: Rituximab protein without inserted selenocysteine", "values": [{"measurement": "fluorescence signal on Raji cells after exposure of protein to FITC maleimide derivative", "setting": "[3]", "result": "only basal levels"}]}, {"substance": "Rituximab-Sec-His/fluorescein: Rituximab-Sec-His conjugated at Sec to fluorescein-5-maleimide (FITC derivative with maleimide moiety)", "values": [{"measurement": "fluorescence signal on Raji cells after exposure of protein to FITC maleimide derivative", "setting": "[3]", "result": "clear and homogenous signal"}, {"measurement": "complement-dependent cytotoxicity with rabbit complement", "setting": "[4]; listed as Rituxi-Sec-His/fluorescein", "result": "as potent as Rituximab"}, {"measurement": "complement-dependent cytotoxicity with rabbit complement", "setting": "[4]; listed as Rituximab-Sec-His/FITC", "result": "equal cytotoxicity"}]}, {"substance": "Rituximab: commercially available CD20 antibody [reference compound]", "values": [{"measurement": "binding to Raji cells", "setting": "[3]; 0.6 μM, 1 hour on ice, FIG. 11A", "result": "equal affinities"}, {"measurement": "complement-dependent cytotoxicity with rabbit complement", "setting": "[4]", "result": "strong cytotoxic effect"}, {"measurement": "cytotoxicity of antibody alone, without rabbit serum", "setting": "[4]; no rabbit serum, FIG. 12A", "result": "neither the antibody nor rabbit serum alone mediated complement-dependent cytotoxicity"}, {"measurement": "serum signal over the course of the experiment", "setting": "[5]", "result": "only marginal weakening"}]}]}
